The source of these data is article PMC11845725.

Experiment [1] addresses TGM6 domain 3 (TGM6-D3) (H. polygyrus). Description: ITC; competition: 150 μM TGFBR2 in the syringe into 15 μM TGM6-D3 in the cell with 0.0 or 6.0 μM TGM1-D3; 25 °C; ITC buffer pH 7.4; global fit to a simple competitive binding model; constants are for binding in the absence of competitor.
For experiment [2], the target named is TGM1 domain 3 (TGM1-D3) (H. polygyrus). Description: ITC; binder in the syringe, target in the sample cell, concentrations as in the tables; 35 °C; 25 mM HEPES, 150 mM NaCl, 0.05% NaN3, pH 7.4; fit to a simple 1:1 binding model.
The target in experiment [3] is TGM6-D3 Q81K R82S R83G G84T (KSGT) (H. polygyrus). The experiment is described as above.
Experiment [4] concerns the target TGM6 domain 3 (TGM6-D3) (H. polygyrus). Described as above.
Experiment [5] deals with TGM1-D3 K254P N255R (PR) (H. polygyrus). Described as above.
Experiment [6] addresses TGM1-D3 S242R (H. polygyrus). Described as above.
Experiment [7] concerns the target TGM1-D3 K241Q S242R G243R T244G (QRRG) (H. polygyrus). The experiment is described as above.
The target in experiment [8] is TGM6-D3 R82S (H. polygyrus). The experiment is described as above.
For experiment [9], the target named is TGM6-D3 R82A (H. polygyrus). Described as above.
The target of experiment [10] is TGM6-D3 I78A (H. polygyrus). Description: ITC; binder in the syringe, target in the sample cell, concentrations as in the tables; 25 °C; 25 mM HEPES, 150 mM NaCl, 0.05% NaN3, pH 7.4; fit to a simple 1:1 binding model. In general terms: Isothermal titration calorimetry measures the heat released or taken up as one component is titrated into another.
The target of experiment [11] is TGM6-D3 Y93A (H. polygyrus). The experiment is described as above.
The target of experiment [12] is TGM6-D3 Y80A (H. polygyrus). The description is as above.
Experiment [13] addresses TGM6 domain 3 (TGM6-D3) (H. polygyrus). The description is as above.
For experiment [14], the target named is TGM6-D3 R38A (H. polygyrus). Described as above.
Experiment [15] addresses H. polygyrus TGF-β Mimic 6 (TGM6) (H. polygyrus). The description is as above.
The target in experiment [16] is TGM6-D3 P94K R95N (KN) (H. polygyrus). Described as above.
In experiment [17] the target is TGM6-D3 R95A (H. polygyrus). The experiment is described as above.
Experiment [18] deals with TGM6-D3 Y80F (H. polygyrus). The experiment is described as above.
The target of experiment [19] is TGFBR2 extracellular domain (TGF-β type II receptor) (UniProt P37173). Put plainly: ITC; TGM6-D3, TGM1-D3 and TGFBR2 variants, simple binding model, 1–2 replicates per variant; syringe and cell proteins in Supplementary Table 6; 25 mM HEPES, 150 mM NaCl, 0.05% NaN3, pH 7.4.
For experiment [20] the target is unchanged.
A further experiment has as its target TGFBR2 E142A (human). Put plainly: ITC; binder in the syringe, target in the sample cell, concentrations as in the tables; 35 °C; 25 mM HEPES, 150 mM NaCl, 0.05% NaN3, pH 7.4; fit to a simple 1:1 binding model.
A further experiment concerns the target TGFBR2 D55A (human). The experiment is described as above.
A further experiment concerns the target TGFBR2 I76A (human). Description: ITC; binder in the syringe, target in the sample cell, concentrations as in the tables; 25 °C; 25 mM HEPES, 150 mM NaCl, 0.05% NaN3, pH 7.4; fit to a simple 1:1 binding model.
The target of a further experiment is TGFBR2 D141A (human). The experiment is described as above.
The target of experiment [21] is TGF-β type II receptor extracellular domain (TGFBR2) (human). The experiment is described as above.
Experiment [22] concerns the target TGM1 domains 4 and 5 (TGM1-D45) (H. polygyrus). Put plainly: ITC; binder in the syringe, target in the sample cell, concentrations as in the tables; 35 °C; 25 mM HEPES, 150 mM NaCl, 0.05% NaN3, pH 7.4; fit to a simple 1:1 binding model.

For orientation: Kd means the concentration at which binding is half-saturated. Low values mean tighter binding, high ones weaker binding. The term stoichiometry N denotes the number of molecules, sites or subunits per partner or assembly.

Take “TGF-β type II receptor extracellular domain (TGFBR2)”: the Kd in experiment [1] is 189 nM; in experiment [2] it was 1530 nM; in experiment [3], 4490 nM; in experiment [4], 437 nM; in [5], 2620 nM; in [6], 380 nM. The Kd in experiment [7] turned out to be 170 nM; in experiment [8] it was 3090 nM; in experiment [9], 4230 nM; in experiment [10], 5560 nM; in experiment [11], 39000 nM; in experiment [12], 48400 nM. The Kd in [13] was 360 nM; in experiment [14], 8030 nM; in [15], 222 nM; in experiment [16] it was 270 nM; in experiment [17] it was 3820 nM; in experiment [18] it was 1250 nM. Besides, the stoichiometry N in [2] was determined as 0.72 sites; in experiment [3], 0.82 sites; in experiment [4], 1.01 sites; in experiment [5], 0.91 sites; in experiment [6] it was 0.7 sites; in experiment [7] it was 1.1 sites. Besides, the stoichiometry N was 1.12 sites in experiment [8]; 0.93 sites in experiment [9]; 0.71 sites in experiment [10]; 0.17 sites in experiment [11]; 0.33 sites in experiment [12]; 0.87 sites in experiment [13]. For the same substance, the stoichiometry N in experiment [14] is 0.85 sites; in [15], 1.16 sites; in [16], 0.9 sites; in [17], 1 sites; in [18], 0.67 sites.
The substance TGM1-D3 S242R (domain or fragment) displayed a fold gain of binding affinity against wild type in experiment [19] of 4 fold.
As to “TGM6 (TGF-β mimic 6), full-length (natural protein)”, in experiment [20], the IC50 of inhibition of the TGF-β1- or TGM1-stimulated CAGA luciferase reporter in NIH-3T3 fibroblasts by increasing concentrations of TGM6 came out at 0.05 nM and the IC50 of inhibition of the TGF-β1- or TGM1-stimulated reporter in MFB-F11 fibroblasts by increasing concentrations of TGM6 came out at 0.2 nM.
In the case of “TGM6 domain 3 (TGM6-D3) (domain or fragment)”, the Kd with TGFBR2 E142A (human) turned out to be 3170 nM; with TGFBR2 D55A (human), 2250 nM; in the experiment with TGFBR2 I76A (human), 7350 nM; with TGFBR2 D141A (human), 940 nM; in [21], 350 nM. In addition, the stoichiometry N with TGFBR2 E142A (human) was 0.56 sites; in the experiment with TGFBR2 D55A (human), 0.52 sites; with TGFBR2 I76A (human), 0.69 sites; with TGFBR2 D141A (human), 0.75 sites; in experiment [21], 0.68 sites.
In experiment [19], TGM6-D3 I78A (domain or fragment) had a fold decrease in binding affinity against wild type of 15.4 fold.
On the same count and under the same terms, the figure for TGM6-D3 R38A (domain or fragment) is 22 fold.
TGM6-D3 R82A (domain or fragment) had a fold decrease in binding affinity against wild type in [19] of 11 to 12 fold.
In [19], TGM6-D3 R82S (domain or fragment) had a fold loss of binding affinity against wild type of 8.6 fold.
Turning to TGM6-D3 R95A (domain or fragment), the fold decrease in binding affinity against wild type in experiment [19] came out at 11.6 fold.
In the case of TGM6-D3 Y80A (domain or fragment), in experiment [19], the fold decrease in binding affinity against wild type was found to be 134 fold.
TGM6-D3 Y80F (domain or fragment) came in with a fold decrease in binding affinity against wild type in [19] of 3.5 fold.
In experiment [19], TGM6-D3 Y93A (domain or fragment) gave a fold decrease in binding affinity against wild type of 108 fold.
In the case of mouse CD44 (mCD44) (receptor), in [22], the Kd turned out to be 126 nM and the stoichiometry N is 0.82 sites.
